PMC3352945

Tests used:
imported cpTatC = experiment: radioligand binding
[1] = biological target: cpTatC (pea (endogenous in pea thylakoids)); experiment: pull-down

tOE17-GS3-His, sequence (Q41048 whole entry): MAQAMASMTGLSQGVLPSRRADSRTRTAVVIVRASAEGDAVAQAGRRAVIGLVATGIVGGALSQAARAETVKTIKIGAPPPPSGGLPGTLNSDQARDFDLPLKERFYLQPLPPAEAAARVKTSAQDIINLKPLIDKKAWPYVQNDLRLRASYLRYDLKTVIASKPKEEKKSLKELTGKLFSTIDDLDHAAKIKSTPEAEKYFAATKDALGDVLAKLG
tOE17 V-20F precursor protein, sequence (Q41048 whole entry): as above

Row | stoichiometry N (tOE17 per imported cpTatC) (imported cpTatC) | stoichiometry N (tOE17-GS3-His per cpTatC) [1] | Substance
1 | 0.92 | – | tOE17 V-20F precursor protein (from UniProt Q41048 1-217) (natural protein)
2 | – | 1.05 | tOE17-GS3-His (from UniProt Q41048 1-217) (natural protein)
